{
  "source": "patent US20210170047A1",
  "about": "(CASE WESTERN RESERVE UNIVERSITY, published 2021)",
  "binders": {"B1": {"name": "cRGD-liposomes (liposomes surface-decorated with DSPE-PEG-cRGD, cyclo-CNPRGDY(OEt)RC) (peptide)", "peptide": "CNPRGDYRC", "modifications": "not fully specified; Y(OEt); terminal cysteines cyclized through disulfide; N-terminus conjugated to DSPE-PEG lipid, displayed on the liposome surface", "notes": "NBD or Nanogold label; also called cyclic RGD-modified liposomes"}, "B2": {"name": "human fibrinogen (ligand)", "chain 1": "ADSGEGDFLAEGGGVRGPRVVERHQSACKDSDWPFCSDEDWNYKCPSGCRMKGLIDEVNQDFTNRINKLKNSLFEYQKNNKDSHSLTTNIMEILRGDFSSANNRDNTYNRVSEDLRSRIEVLKRKVIEKVQHIQLLQKNVRAQLVDMKRLEVDIDIKIRSCRGSCSRALAREVDLKDYEDQQKQLEQVIAKDLLPSRDRQHLPLIKMKPVPDLVPGNFKSQLQKVPPEWKALTDMPQMRMELERPGGNEITRGGSTSYGTGSETESPRNPSSAGSWNSGSSGPGSTGNRNPGSSGTGGTATWKPGSSGPGSTGSWNSGSSGTGSTGNQNPGSPRPGSTGTWNPGSSERGSAGHWTSESSVSGSTGQWHSESGSFRPDSPGSGNARPNNPDWGTFEEVSGNVSPGTRREYHTEKLVTSKGDKELRTGKEKVTSGSTTTTRRSCSKTVTKTVIGPDGHKEVTKEVVTSEDGSDCPEAMDLGTLSGIGTLDGFRHRHPDEAAFFDTASTGKTFPGFFSPMLGEFVSETESRGSESGIFTNTKESSSHHPGIAEFPSRGKSSSYSKQFTSSTSYNRGDSTFESKSYKMADEAGSEADHEGTHSTKRGHAKSRPV", "chain 2": "QGVNDNEEGFFSARGHRPLDKKREEAPSLRPAPPPISGGGYRARPAKAAATQKKVERKAPDAGGCLHADPDLGVLCPTGCQLQEALLQQERPIRNSVDELNNNVEAVSQTSSSSFQYMYLLKDLWQKRQKQVKDNENVVNEYSSELEKHQLYIDETVNSNIPTNLRVLRSILENLRSKIQKLESDVSAQMEYCRTPCTVSCNIPVVSGKECEEIIRKGGETSEMYLIQPDSSVKPYRVYCDMNTENGGWTVIQNRQDGSVDFGRKWDPYKQGFGNVATNTDGKNYCGLPGEYWLGNDKISQLTRMGPTELLIEMEDWKGDKVKAHYGGFTVQNEANKYQISVNKYRGTAGNALMDGASQLMGENRTMTIHNGMFFSTYDRDNDGWLTSDPRKQCSKEDGGGWWYNRCHAANPNGRYYWGGQYTWDMAKHGTDDGVVWMNWKGSWYSMRKMSMKIRPFFPQQ", "chain 3": "YVATRDNCCILDERFGSYCPTTCGIADFLSTYQTKVDKDLQSLEDILHQVENKTSEVKQLIKAIQLTYNPDESSKPNMIDAATLKSRKMLEEIMKYEASILTHDSSIRYLQEIYNSNNQKIVNLKEKVAQLEAQCQEPCKDTVQIHDITGKDCQDIANKGAKQSGLYFIKPLKANQQFLVYCEIDGSGNGWTVFQKRLDGSVDFKKNWIQYKEGFGHLSPTGTTEFWLGNEKIHLISTQSAIPYALRVELEDWNGRTSTADYAMFKVGPEADKYRLTYAYFAGGDAGDAFDGFDFGDDPSDKFFTSHNGMQFSTWDNDNDKFEGNCAEQDGSGWWMNKCHAGHLNGVYYQGGTYSKASTPNGYDNGIIWATWKTRWYSMKKTTMKIIPFNRLTIGEGQQHHLGGAKQAGDV", "notes": "the fibrinogen of human platelet-rich plasma in the aggregometry assay; also called Fg"}, "B3": {"name": "RGE-liposomes (liposomes surface-decorated with the negative control peptide GSSSGRGESPA) (peptide)", "peptide": "{DSPE‑PEG}-GSSSGRGESPA", "modifications": "also: displayed on liposome surface, 1 or 5 mol %", "notes": "also called lRGE-liposomes; constructs bearing negative control peptides"}, "B4": {"name": "free cyclic RGD peptide cyclo-CNPRGDY(OEt)RC (peptide)", "peptide": "CNPRGDYRC", "modifications": "Y(OEt); terminal cysteines (C) cyclized through disulfide"}, "B5": {"name": "DAEWVDVS-modified liposomes (liposomes surface-decorated with DSPE-PEG-DAEWVDVS) (peptide)", "peptide": "{DSPE‑PEG}-DAEWVDVS", "modifications": "also: displayed multivalently on ~150 nm liposome surface, 5 mol % (2.5-10 mol %)", "notes": "also called singly-targeted liposomes"}},
  "key": {"[1]": {"molecular_target": "T1, integrin αIIbβ3 (glycoprotein GPIIb-IIIa) on ADP-activated human platelets (human, UniProt P08514 32-1039; P05106 27-788)", "T1 construct": "whole, on cells; also called CD41a", "T1 sequence (P08514 32-1039, chain 1 of 2)": "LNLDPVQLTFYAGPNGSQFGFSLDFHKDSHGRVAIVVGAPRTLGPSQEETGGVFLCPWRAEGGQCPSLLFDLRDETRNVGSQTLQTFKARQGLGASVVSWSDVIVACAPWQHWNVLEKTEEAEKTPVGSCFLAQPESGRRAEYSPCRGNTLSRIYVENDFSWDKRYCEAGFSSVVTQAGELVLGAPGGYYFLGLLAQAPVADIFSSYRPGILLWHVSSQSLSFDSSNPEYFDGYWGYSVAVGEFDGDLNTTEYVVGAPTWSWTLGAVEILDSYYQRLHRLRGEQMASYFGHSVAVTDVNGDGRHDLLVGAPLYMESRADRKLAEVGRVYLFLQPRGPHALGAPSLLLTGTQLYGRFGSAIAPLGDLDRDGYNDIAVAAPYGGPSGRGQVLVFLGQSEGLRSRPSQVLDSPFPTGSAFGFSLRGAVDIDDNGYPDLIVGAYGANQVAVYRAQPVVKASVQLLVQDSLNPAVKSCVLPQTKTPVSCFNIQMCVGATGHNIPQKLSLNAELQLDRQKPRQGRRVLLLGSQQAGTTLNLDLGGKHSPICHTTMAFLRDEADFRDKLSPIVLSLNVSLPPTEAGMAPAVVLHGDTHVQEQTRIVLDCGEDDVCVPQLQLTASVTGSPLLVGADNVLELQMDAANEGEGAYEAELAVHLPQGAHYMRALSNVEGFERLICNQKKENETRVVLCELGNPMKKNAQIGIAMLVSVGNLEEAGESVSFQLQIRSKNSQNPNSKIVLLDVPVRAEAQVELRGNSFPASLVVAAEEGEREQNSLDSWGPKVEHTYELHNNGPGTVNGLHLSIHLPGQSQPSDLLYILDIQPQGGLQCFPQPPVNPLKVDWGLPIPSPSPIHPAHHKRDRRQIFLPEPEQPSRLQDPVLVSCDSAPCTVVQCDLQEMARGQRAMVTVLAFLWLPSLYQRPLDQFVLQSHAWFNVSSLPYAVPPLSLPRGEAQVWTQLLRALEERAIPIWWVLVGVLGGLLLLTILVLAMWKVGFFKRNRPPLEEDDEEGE", "T1 sequence (P05106 27-788, chain 2 of 2)": "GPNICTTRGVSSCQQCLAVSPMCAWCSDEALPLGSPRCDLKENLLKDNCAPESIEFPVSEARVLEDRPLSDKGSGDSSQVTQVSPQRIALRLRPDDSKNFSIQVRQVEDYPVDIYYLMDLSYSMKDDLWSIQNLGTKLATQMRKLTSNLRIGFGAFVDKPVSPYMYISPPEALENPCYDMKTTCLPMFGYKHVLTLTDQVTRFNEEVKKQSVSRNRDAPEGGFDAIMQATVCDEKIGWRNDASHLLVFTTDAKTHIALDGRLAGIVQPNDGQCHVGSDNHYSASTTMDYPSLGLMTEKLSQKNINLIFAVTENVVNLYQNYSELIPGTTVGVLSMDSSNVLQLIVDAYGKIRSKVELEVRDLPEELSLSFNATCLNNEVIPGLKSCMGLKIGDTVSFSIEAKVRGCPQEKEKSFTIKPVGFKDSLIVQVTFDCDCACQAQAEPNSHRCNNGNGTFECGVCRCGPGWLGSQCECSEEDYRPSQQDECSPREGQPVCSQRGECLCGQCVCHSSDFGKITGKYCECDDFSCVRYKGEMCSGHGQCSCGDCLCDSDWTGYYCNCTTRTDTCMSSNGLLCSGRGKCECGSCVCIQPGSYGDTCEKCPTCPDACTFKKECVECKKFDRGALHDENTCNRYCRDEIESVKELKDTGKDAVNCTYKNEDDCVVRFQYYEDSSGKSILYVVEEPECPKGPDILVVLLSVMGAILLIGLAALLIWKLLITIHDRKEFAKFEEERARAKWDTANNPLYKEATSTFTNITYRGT", "test": "flow cytometry, agonist-added human whole blood, 50 µM total lipid", "protocol": "The effect of platelet activation on liposome binding was studied by a FACScan flow cytometer (Becton Dickinson) with a 488 nm laser and three color detector. For cytometry analysis whole blood aliquots with different platelet activation levels were used. The level of platelet-activation was assessed by simultaneous fluorescence staining of platelet integrin GPIIb-IIIa (with FITC-anti-CD41a) and P-Selectin (with PE-anti-CD62P). Previously we have reported on detecting progressive activation of platelets in freshly drawn blood with addition of agonists (e.g., ADP) and have confirmed that binding of RGD-modified liposomes to platelets increased in an activation-dependant manner. Following a similar protocol, whole blood aliquots containing predominantly activated platelets were incubated with PDPC-NBD-labeled cRGD-, lRGD-, or lRGE-modified liposomes at a final concentration of 50 μM total lipid. For the liposome incubated samples, FITC-anti-CD41a labeling was not used, while PE-anti-CD62P labeling was still used as an activated platelet marker. Simultaneous PE and NBD fluorescence, for gated platelet populations, was analyzed for ˜20,000 events (counts) per sample aliquot and fluorescence data were recorded accordingly. […]"}, "[2]": {"molecular_target": "T1, integrin αIIbβ3 (glycoprotein …)", "test": "flow cytometry, human whole blood with ADP pre-incubation, 50 µM total lipid", "source_text": "Parallel phase contrast image of the same field of view was obtained on the same microscope, by shutting off the fluorescence laser, turning on the phase contrast light source and changing the objective from fluorescence to a phase contrast one, at same magnification. To establish that the specific binding of cRGD-liposomes is predominantly to activated platelets compared to quiescent platelets, we performed flow cytometry assays similar to that described in previous publications from our group. Briefly, NBD-labeled cRGD liposomes were incubated with aliquots of freshly drawn human whole blood with or without the addition of agonist ADP. […] Following 30 min of liposome incubation, the aliquots were analyzed in a Becton-Dickinson FACScan flow cytometer for NBD fluorescence. All aliquots were measured in triplicate and approximately 15000 counts were recorded per aliquot. […] The NBD fluorescence intensity from aliquots without liposome incubation, aliquots with liposome incubation but without ADP pre-incubation, and aliquots with liposome incubation after ADP pre-incubation, were recorded as histograms and the plots were overlaid for comparison."}, "[3]": {"molecular_target": "T1, integrin αIIbβ3 (glycoprotein …)", "test": "dual fluorescence microscopy, co-incubation with peptide-modified liposomes", "protocol": "The [fibrinogen: liposome] ratio in the incubation assays was maintained at 400:1 by mole, to provide a physiologically relevant competitive environment. […] A 40× oil-immersion objective was used to visualize fluorescence from platelets. Images were collected in MetaMorph™ (Universal Imaging Corp.), using an exposure time of 500 ms and intensity analysis was performed in the software accordingly. Fluorescence intensity was recorded as mean intensity per pixel area for statistical analysis. All coverslips were prepared in duplicate, and at least three fields were examined for each well."}, "[4]": {"molecular_target": "T2, integrin GPIIb-IIIa on resting (predominantly inactive, no ADP) human platelets (human, UniProt P08514 32-1039; P05106 27-788)", "T2 construct": "whole, on cells; also called predominantly resting platelets", "T2 sequence (P08514 32-1039, chain 1 of 2)": "as the sequence (P08514 32-1039, chain 1 of 2) above", "T2 sequence (P05106 27-788, chain 2 of 2)": "as the sequence (P05106 27-788, chain 2 of 2) above", "test": "flow cytometry, human whole blood without agonist"}, "[5]": {"molecular_target": "T1, integrin αIIbβ3 (glycoprotein …)", "test": "cell-based or functional assay"}, "[6]": {"molecular_target": "T3, P-selectin on ADP-activated human platelets (human, UniProt P16109 42-830)", "T3 construct": "whole, on cells; also called CD62P; P-selectins", "T3 sequence (looked up)": "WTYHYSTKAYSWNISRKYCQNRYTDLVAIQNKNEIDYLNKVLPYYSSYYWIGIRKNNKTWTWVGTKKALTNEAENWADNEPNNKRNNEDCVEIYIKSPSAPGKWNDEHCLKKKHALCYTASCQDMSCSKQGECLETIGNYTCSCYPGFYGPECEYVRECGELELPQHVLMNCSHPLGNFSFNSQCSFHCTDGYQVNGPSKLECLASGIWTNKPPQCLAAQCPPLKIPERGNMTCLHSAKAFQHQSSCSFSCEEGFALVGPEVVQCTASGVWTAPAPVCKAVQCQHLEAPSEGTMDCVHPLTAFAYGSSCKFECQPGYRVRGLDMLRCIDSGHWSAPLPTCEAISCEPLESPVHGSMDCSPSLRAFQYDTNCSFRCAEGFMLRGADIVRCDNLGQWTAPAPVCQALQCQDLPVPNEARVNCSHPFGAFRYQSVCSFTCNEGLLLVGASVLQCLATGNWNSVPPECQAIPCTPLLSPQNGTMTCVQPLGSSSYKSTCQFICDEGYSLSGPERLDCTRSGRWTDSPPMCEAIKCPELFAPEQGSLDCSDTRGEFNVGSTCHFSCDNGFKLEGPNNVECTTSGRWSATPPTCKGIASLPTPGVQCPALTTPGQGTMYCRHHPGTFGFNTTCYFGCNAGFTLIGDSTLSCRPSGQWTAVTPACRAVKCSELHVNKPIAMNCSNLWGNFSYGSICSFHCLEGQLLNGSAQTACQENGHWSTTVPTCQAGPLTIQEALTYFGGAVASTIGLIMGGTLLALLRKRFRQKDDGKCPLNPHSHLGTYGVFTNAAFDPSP", "test": "fluorescence microscopy, static, collagen-adhered activated human platelets", "protocol": "Receptor-specific binding studies in a static environment human whole blood was obtained from healthy, aspirin-refraining donors by venipuncture following IRB-approved protocol and collected in citrated tubes. Platelet-rich-plasma (PRP) was obtained from the whole blood by centrifugation (150×g, 15 min, room temperature), and platelet concentration was verified at 200×10⁶ platelets/ml. The platelets in PRP were activated using ADP at a concentration of 2×10⁻⁵M, and were allowed to adhere to glass coverslips pre-coated with collagen. […] After 1 h of incubation, the coverslips were gently washed with PBS to remove loosely bound liposomal constructs and imaged using fluorescence microscopy. […] D1 inverted fluorescence microscope fitted with a photometrics chilled CCD camera and a 63× objective using exposure time of 800 ms. To confirm that non-specific binding of the liposomes was not occurring, fluorescently-labeled peptide-modified liposomal constructs were incubated with coverslips coated with collagen only but no activated platelets, followed by gentle washing and imaged using fluorescence microscopy keeping same exposure times (800 ms)."}},
  "note": "Ends that are not written are not given here.",
  "data": [
    {"binder": "B1", "values": [
      {"measurement": "platelet-associated NBD fluorescence against lRGD-liposome-incubated aliquots", "setting": "[1]", "value": "~10 fold (printed as an order of magnitude)"},
      {"measurement": "NBD fluorescence of ADP-activated platelets against inactive platelets", "setting": "[2]", "value": "~100 fold (printed as two orders of magnitude)"}
    ]},
    {"binder": "B2", "values": [
      {"measurement": "binding result", "setting": "[3]", "value": "binds"}
    ]},
    {"binder": "B3", "values": [
      {"measurement": "binding result", "setting": "[4]", "value": "no binding (tested: 50 µM total lipid)"}
    ]},
    {"binder": "B4", "values": [
      {"measurement": "IC50: concentration of peptide required to inhibit fibrinogen-mediated platelet aggregation in platelet-rich plasma by 50% (aggregometry), against lRGD", "setting": "[5]", "value": "~1000", "unit": "times lower than for lRGD"},
      {"measurement": "IC50 estimation by aggregometry assay, against lRGD", "setting": "[5]", "value": "~100 fold lower than for lRGD (printed as 2 orders of magnitude)"}
    ]},
    {"binder": "B5", "values": [
      {"measurement": "binding result", "setting": "[6]", "value": "binds"}
    ]}
  ]
}
